According to paper PMC7093204 (Nature, 2020):

B1: Sfh1 (natural protein)
chain: MSHQNQLIPQAYISNFHNRLTNEDDGIPIFTMAQQTRQHKRAKVVNYAEYDNDLFDEFNMNGSNFNNADTHYKDNAVSHENTPALTNGVTMDGSEYNVLENMNGADSIISNNKYDAGSNMVVESLSGLNSNNNASNGPSNKAQAQDIGNAVLPDLQDQHHNPFNILRYPKIRDTFINGKVVSPYRLNTDQETKANANSGEAIMIPITLDIEHMGHTIKDQFLWNYNDDSISPEEFASIYCKDLDMTSATLQTQIANIIKEQLKDLENIAATEIMSDLHVIINLTCNLQDRFFEDNFQWNLNDKSLTPERFATSIVQDLGLTREFIPLISQSLHETILKIKKDWVDGHLIQDHVPNDAAFGYLSGIRLDIDELGSNWCPRVEILTKEEIQKREIEKERNLRRLKRETDRLSRRGRRRLDDLETTMRM
B2: Rsc8 (natural protein)
chain: MSDTEKDKDVPMVDSHEATEEPPTTSTNTPSFPHLAQEQAKEESATLGAEVAHKKINYEQEAQKLEEKALRFLAKQTHPVIIPSFASWFDISKIHEIEKRSNPDFFNDSSRFKTPKAYKDTRNFIINTYRLSPYEYLTITAVRRNVAMDVASIVKIHAFLEKWGLINYQIDPRTKPSLIGPSFTGHFQVVLDTPQGLKPFLPENVIKQEVEGGDGAEPQVKKEFPVNLTIKKNVYDSAQDFNALQDESRNSRQIHKVYICHTCGNESINVRYHNLRARDTNLCSRCFQEGHFGANFQSSDFIRLENNGNSVKKNWSDQEMLLLLEGIEMYEDQWEKIADHVGGHKRVEDCIEKFLSLPIEDNYIREVVGSTLNGKGGDSRDGSVSGSKLMECVNDAVQTLLQGDDKLGKVSDKSREISEKYIEESQAIIQELVKLTMEKLESKFTKLCDLETQLEMEKLKYVKESEKMLNDRLSLSKQILDLNKSLEELNVSKKLVLISEQVDSGIQLVEKDQEGDDEDGNTATGHGVKRVGKEGEEVGEGDSIAKLQPQVYKPWSL
B3: Rsc6 (natural protein)
chain: MVTQTNPVPVTYPTDAYIPTYLPDDKVSNLADLKKLIEMDSRLDLYLTRRRLDTSINLPTNTKTKDHPPNKEMLRIYVYNTTESSPRSDSGTPADSGKTTWTLRIEGKLLHESANGKHPFSEFLEGVAVDFKRLKPLGMGKKRKRDSSLSLPLNLQQPEYNDQDSTMGDNDNGEDEDSAEAESREEIVDALEWNYDENNVVEFDGIDIKRQGKDNLRCSITIQLRGVDGGKVQYSPNLATLIGMQTGSVNDAVYSIYKYILINNLFVTEQTEAQDGSNDAEDSSNENNNKNGAGDDDGVEGSTPKDKPELGEVKLDSLLQKVLDTNAAHLPLMNVVQTVNKLVSPLPPIILDYTIDLSKDTTYGATTLDVDVSHILHQPQPQPNLQKEEETDAEDTAKLREITKLALQLNSSAQKYQFFHELSLHPRETLTHYLWSSKQNELVLQGDQYFNEDAARTSDIYSNNNNDRSLMGNISLLYSQGRL

How the values were obtained:
[1] = target: B2; assay: cryo-EM structure
[2] = target: the molecule itself; assay: cryo-EM structure

binding result [1]	Binder	binding result [2]
binds	B1	
	B2	binds
binds	B3	
